Laboratory results: patent publication US7700101B2, “Reagents and method for modulating Dkk-mediated interactions” (Wyeth, priority 2001, dated 2010)
Entries after “also recorded” stand apart in the source; their conditions may differ.

Tests used:
canonical Wnt pathway = test: Xenopus embryo assay, hDkk-1 dose-response (enlarged anterior structures); type: in vivo; settings: 250 pg/embryo hDkk-1 RNA; FIG. 10
Method: mRNA for microinjection into Xenopus embryos is generated by in vitro transcription using the CDNA constructs in the pCS2^+ vector described above as template. RNA is synthesized using the Ambion mMessage mMachine high yield capped RNA transcription kit (Cat. #1340) following the manufacturer's specifications for the Sp6 polymerase reactions. RNA products were brought up to a final volume of 50 μl in sterile, glass-distilled water and purified over Quick Spin-Columns for Radiolabelled RNA Purification G50-Sephadex (Roche, Cat. #1274015) following the manufacturer's specifications. The resulting eluate was finally extracted with phenol:chloroform:isoamyl alcohol and isopropanol precipitated using standard protocols (Sambrook et al., 1989). Final RNA volumes were approximately 50 μl. RNA concentration was determined by absorbance values at 260 nm and 280 nm. RNA integrity was visualized by ethidium bromide staining of denaturing (formaldehyde) agarose gel electrophoresis (Sambrook et al., 1989). Various amounts of RNA (2 pg to 1 ng) are injected into the ventral blastomere of the 4- or 8-cell Xenopus embryo. These protocols are described in Moon et al., Technique-J. of Methods in Cell and Mol. Biol. 1: 76-89 (1989), and Peng, Meth. Cell. Biol. 36: 657-62 (1991). […]

LRP5 = biological target: T1, LRP5 (Homo sapiens, UniProt O75197); test: TCF-luciferase assay in HOB-03-CE6 cells, LRP5; type: cell-based
T1 construct: Site-directed mutants of LRP5 were generated in the full-length human LRP5 cDNA; expressed in transfected cells; host or cells: HOB-03-CE6 osteoblastic cells; U2OS osteosarcoma cells; HEK293
T1 sequence (O75197 32-1615): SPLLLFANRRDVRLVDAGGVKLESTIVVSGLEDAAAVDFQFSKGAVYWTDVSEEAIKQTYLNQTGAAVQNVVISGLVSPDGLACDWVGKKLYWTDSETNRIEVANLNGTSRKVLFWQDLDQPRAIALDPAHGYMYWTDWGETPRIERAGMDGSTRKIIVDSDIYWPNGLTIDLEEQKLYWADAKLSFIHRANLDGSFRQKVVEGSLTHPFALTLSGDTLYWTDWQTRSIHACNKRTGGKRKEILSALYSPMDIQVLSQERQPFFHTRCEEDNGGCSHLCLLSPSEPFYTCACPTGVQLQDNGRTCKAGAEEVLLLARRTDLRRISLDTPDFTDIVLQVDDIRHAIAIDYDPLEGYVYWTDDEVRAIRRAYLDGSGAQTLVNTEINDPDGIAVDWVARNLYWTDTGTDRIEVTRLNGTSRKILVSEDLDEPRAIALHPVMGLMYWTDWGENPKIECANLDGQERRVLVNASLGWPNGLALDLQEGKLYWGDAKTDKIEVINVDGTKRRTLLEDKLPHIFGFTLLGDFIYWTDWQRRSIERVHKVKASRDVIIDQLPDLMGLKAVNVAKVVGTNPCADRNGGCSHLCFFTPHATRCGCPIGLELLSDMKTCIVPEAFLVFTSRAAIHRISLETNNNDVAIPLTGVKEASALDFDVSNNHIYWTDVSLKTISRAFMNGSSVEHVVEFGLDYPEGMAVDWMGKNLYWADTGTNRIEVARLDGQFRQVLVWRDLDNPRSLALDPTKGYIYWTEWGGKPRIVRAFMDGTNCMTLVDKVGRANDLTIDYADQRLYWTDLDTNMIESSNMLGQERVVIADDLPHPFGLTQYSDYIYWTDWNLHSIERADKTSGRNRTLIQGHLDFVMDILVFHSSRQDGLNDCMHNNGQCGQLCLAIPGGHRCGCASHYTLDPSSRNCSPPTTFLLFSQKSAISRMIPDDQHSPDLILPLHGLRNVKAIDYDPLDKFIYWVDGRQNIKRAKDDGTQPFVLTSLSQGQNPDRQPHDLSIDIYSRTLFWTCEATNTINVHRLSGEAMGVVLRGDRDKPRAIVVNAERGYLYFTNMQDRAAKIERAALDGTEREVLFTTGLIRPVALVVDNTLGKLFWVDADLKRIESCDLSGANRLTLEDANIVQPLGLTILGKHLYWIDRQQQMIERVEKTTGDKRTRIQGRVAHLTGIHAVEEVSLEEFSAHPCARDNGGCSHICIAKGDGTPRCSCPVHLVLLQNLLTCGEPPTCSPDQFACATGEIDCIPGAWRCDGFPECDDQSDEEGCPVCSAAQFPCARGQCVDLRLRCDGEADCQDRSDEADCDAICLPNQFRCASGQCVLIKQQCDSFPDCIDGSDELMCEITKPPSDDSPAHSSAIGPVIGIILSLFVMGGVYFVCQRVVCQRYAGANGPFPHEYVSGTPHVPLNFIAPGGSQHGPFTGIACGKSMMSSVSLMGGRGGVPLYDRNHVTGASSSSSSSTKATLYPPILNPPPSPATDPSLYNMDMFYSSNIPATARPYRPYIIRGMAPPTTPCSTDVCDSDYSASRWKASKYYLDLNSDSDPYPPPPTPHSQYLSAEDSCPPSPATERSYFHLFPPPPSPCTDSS
Method: HOB-03-CE6 osteoblastic cells developed by Wyeth Ayerst (Philadelphia, Pa.) were seeded into 24-well plates at 150,000 cells per well in 1 ml of the growth media (D-MEM/F12 phenol red-free) containing 10% (v/v) heat-inactivated FBS, 1×penicillin streptomycin, and 1X Glutamax-1, and incubated overnight at 34° C. The following day, the cells were transfected using Lipofectamine 2000® (as described by the manufacturer, Invitrogen) in OptiMEM (Invitrogen) with 0.35 μg/well of LRP5, HBM, or control plasmid DNA (empty vector pcDNA3.1) and either Wnt1 or Wnt3 a plasmid DNA. Similar experiments were performed with LRP6 plasmid DNA (0.35 μg/well) or a control pEDdpc4 empty vector. […] All wells were transfected with 0.025 μg/well of CMV beta-galactosidase plasmid DNA and 0.35 μg/well 16X TCF(ASyluciferase reporter DNA (developed by Ramesh Bhat, Wyeth-Ayerst (Philadelphia, Pa.)). After 4 hours of incubation, the cells were rinsed and 1 ml of fresh growth media was added to each well. The cells were cultured overnight at 34° C., followed by a wash and a change of media. Cells were cultured for an additional 18-24 hours at 37° C. Cells were then lysed with 50 μl/well of 1X lysis buffer. The extracts were assayed for beta-galactosidase activity (Galacto Reaction Buffer Diluent & Light Emission Accelerator, Tropix) using 5 μl extract+50 μl beta-galactosidase diluent and luciferase activity (Luciferase Assay Reagent, Promega) using 20 μl extract.

LRP5/Wnt3a mediated TCF-luciferase activity (LRP5; Wnt3a, FIG. 15): able to antagonize LRP5/Wnt3a
Substance: Dkk-1: Dickkopf-1 protein, antagonist of the Wnt pathway; expressed from human cDNA (RNA or plasmid)
embryos displaying enlarged anterior structures (big heads) (canonical Wnt pathway): over 90% | LRP5/Wnt1 mediated TCF-luciferase activity (LRP5; Wnt1, FIG. 14): significantly antagonized TCF-luciferase activity; also recorded: had no effect on LRP5 or HBM mediated TCF-luciferase activity
